Source: patent publication US11078246B2, “Peptides binding to Bfl-1” (Dana-Farber Cancer Institute, Inc., priority 2015, dated 2021)
Changes are numbered by the printed parent chain. Positions of bridges follow the written chain, without caps; N, C: chain ends. Non-standard residues stand in square brackets, D forms with d. No end group written: not given here. S5 = C=CCCC[C@](C)(N)C(=O)O

Assays:
Bfl-1 [1] = biological target: T1, Bfl-1 (Homo sapiens, UniProt Q16548); experiment: Bfl-1:Warhead SAHB conjugation assay; type: binding; conditions: conjugation with Bfl-1
T1 sequence (Q16548 1-175): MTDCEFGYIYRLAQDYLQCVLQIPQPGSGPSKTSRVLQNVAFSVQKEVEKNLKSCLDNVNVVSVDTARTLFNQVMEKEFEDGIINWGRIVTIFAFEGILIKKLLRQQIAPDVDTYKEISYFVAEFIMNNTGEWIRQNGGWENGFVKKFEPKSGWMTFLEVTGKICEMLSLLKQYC
Experimental: Proteins were serially diluted from 1 μM, then combined with FITC-labeled SAHB and polarization measured at 5 min on a microplate reader. We then calculated dissociation constants (KD) by nonlinear regression analysis of dose-response curves. […] Samples were then combined with loading dye, run on a 12% Bis-Tris SDS-PAGE, and stained with Coomassie. The same setup was used for all antiapoptotic proteins tested.

Bfl-1 [2] = biological target: T1, Bfl-1; experiment: Competitive binding assay after pre-forming the Bfl-1:NOXA disulfide bond; conditions: Bfl-1:NOXA disulfide bond pre-formed
Experimental: The functional impact of the Bfl-1:NOXA disulfide bond formation was evaluated using competitive binding assays and liposomal release assays.

BFL-1ΔC [3] = biological target: T2, BFL-1ΔC (Homo sapiens, UniProt Q16548); experiment: In vitro covalent conjugation assay (DTT reduction, GSSG oxidation); type: binding; conditions: DTT 10 mM then GSSG 12 mM; Coomassie, FITC scan
T2 construct: cDNA encoding BFL-1ΔC (aa 1-153) was cloned into the pET19b expression vector; made in house; host or cells: Escherichia coli BL21(DE3) LOBSTR
T2 sequence (Q16548 1-153): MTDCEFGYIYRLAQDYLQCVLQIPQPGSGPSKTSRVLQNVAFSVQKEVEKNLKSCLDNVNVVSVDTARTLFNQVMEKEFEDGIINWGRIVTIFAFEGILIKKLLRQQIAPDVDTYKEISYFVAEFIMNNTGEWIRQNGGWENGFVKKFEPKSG
Experimental: (§1) Biolayer Interferometry: Binding analyses of NOXA peptide interactions with BFL-1ΔC were performed on an Octet RED384 system (Fortebio, Menlo Park, Calif.) at 30° C. Super streptavidin (SSA) tips were prewetted in 1× kinetics buffer (PBS, pH 7.4, 0.01% BSA, 0.002% Tween-20) and then conjugated to NOXA SAHBs bearing an N-terminal biotin-PEG linker (10 μg/mL). Excess streptavidin was quenched by incubation with 2 μg/mL biocytin. The tips were then washed with kinetics buffer and soaked in a serial dilution of BFL-IAC for 10 min to measure association rate, followed by a 15 min incubation in kinetics buffer to measure dissociation rate. Dissociation constants were calculated using Octet Data Analysis version 9.0. […] After this incubation in a reducing environment, the mixture was diluted 5-fold into 50 mM Tris pH 8.0, 100 mM NaCl, 12 mM GSSG and incubated in the dark for an additional 30 min at RT. […] The gel was rinsed with water, subjected to FITC scan (Typhoon FLA 9500, GE Healthcare) and then Coomassie staining.

Bfl-1 [4] = biological target: T1, Bfl-1; experiment: Bfl-1:NOXA conjugation assay (disulfide bond, GSSG oxidation); type: binding; conditions: non-reducing SDS-PAGE
Experimental: Next, the impact of the Cys25 in NOXA was investigated. […] The distance between the sulfurs of the cysteine residues is 3.5 A according to the previously determined crystal structure of the bound proteins (PDB ID 3MQP). […] To examine the impact of Cys25 in NOXA on target interaction, we examined the binding of WT NOXA SAHB and NOXA C25S SAHB to Bfl-1 and to a variety of Bfl-1 cysteine mutants. In vitro conjugation assays were performed in order to verify the formation of the disulfide bond. Global reduction of the protein and the NOXA peptides, followed by the introduction of an oxidant such as GSSG led to production of a disulfide bond, shown as a 3 kDa shift on non-reducing SDS-PAGE (FIG. 4A). […] (FIG. 4A).
Fluorescence polarization assay: The solution-state equilibrium binding assay was used to determine binding affinities of the stapled peptides to the anti-apoptotic proteins. Proteins were serially diluted from 1 μM, then combined with FITC-labeled SAHB and polarization measured at 5 min on a microplate reader. We then calculated dissociation constants (KD) by nonlinear regression analysis of dose-response curves. […] Samples were then run on non-reducing SDS-PAGE, scanned for fluorescence, then stained with Coomassie. […] Plates were read following liposome lysis with 1% Triton X-100 to determine maximal release (F100). Percent ANTS/DPX release was calculated as […]. […]

Bfl-1 [5] = biological target: T1, Bfl-1; experiment: Liposomal release assay (Bfl-1 inhibition of BAX activation); type: biochemical
Experimental: Fluorescence polarization assay: The solution-state equilibrium binding assay was used to determine binding affinities of the stapled peptides to the anti-apoptotic proteins. Proteins were serially diluted from 1 μM, then combined with FITC-labeled SAHB and polarization measured at 5 min on a microplate reader. We then calculated dissociation constants (KD) by nonlinear regression analysis of dose-response curves. Bfl-1:NOXA conjugation assay: The conjugation assay was developed to test for disulfide bond formation in a non-reducing environment, 3:1 FITC-stapled peptide:protein molar ratio was combined in the presence of DTT, then diluted and incubated with 1.2 molar excess GSSG. Samples were then run on non-reducing SDS-PAGE, scanned for fluorescence, then stained with Coomassie. […] ANTS release and dequenching due to DPX dissociation (F) was measured over a period of 120 min with an M1000 Infinite plate reader (Tecan) with excitation and emission wavelengths of 355 nm and 520 nm, respectively. Plates were read following liposome lysis with 1% Triton X-100 to determine maximal release (F100). Percent ANTS/DPX release was calculated as […]. […]

BFL-1ΔC [6] = biological target: T3, BFL-1ΔC (Homo sapiens, UniProt Q16548, C19S/C4S); experiment: In vitro covalent conjugation assay (DTT reduction, GSSG oxidation); type: binding; conditions: Coomassie, FITC scan
T3 construct: cDNA encoding BFL-1ΔC (aa 1-153) was cloned into the pET19b expression vector; made in house; host or cells: Escherichia coli BL21(DE3) LOBSTR
T3 sequence (Q16548 1-153 C4S/C19S): T2 sequence (Q16548 1-153) with C4S, C19S
Experimental: as §1

BFL-1ΔC [7] = biological target: T4, BFL-1ΔC (Homo sapiens, UniProt Q16548, C19S/C4S/C55S); experiment: as above; type: binding; conditions: Coomassie, FITC scan
T4 construct: cDNA encoding BFL-1ΔC (aa 1-153) was cloned into the pET19b expression vector; made in house; host or cells: Escherichia coli BL21(DE3) LOBSTR
T4 sequence (Q16548 1-153 C4S/C19S/C55S): T2 sequence (Q16548 1-153) with C4S, C19S, C55S
Experimental: as §1

MCL-1ΔNΔC = biological target: T5, MCL-1ΔNΔC (Homo sapiens, UniProt Q07820); experiment: In vitro covalent conjugation assay (oxidizing conditions); type: binding
T5 construct: MCL-1ΔNΔC (aa 170-327) and BCL-XLΔC (aa 1-212) constructs were cloned into pGEX-4T-1; GST (N, cleaved yes); made in house; host or cells: Escherichia coli BL21(DE3)

BCL-XLΔC = biological target: T6, BCL-XLΔC (Homo sapiens, UniProt Q07817); experiment: as above; type: binding
T6 construct: MCL-1ΔNΔC (aa 170-327) and BCL-XLΔC (aa 1-212) constructs were cloned into pGEX-4T-1; GST (N, cleaved yes); made in house; host or cells: Escherichia coli BL21(DE3)

GST-MCL-1ΔNΔC = biological target: T7, GST-MCL-1ΔNΔC (Homo sapiens, UniProt Q07820); experiment: Streptavidin pull-down from anti-apoptotic protein mixture; type: binding; conditions: 1:1:1:1 mixture, 1 μM each, biotinylated SAHB
T7 construct: MCL-1ΔNΔC (aa 170-327) and BCL-XLΔC (aa 1-212) constructs were cloned into pGEX-4T-1; made in house; host or cells: Escherichia coli BL21(DE3)
Experimental: Streptavidin Pull-down: Recombinant His-BFL-1ΔC, BCL-XLΔC (tagless) and GST-MCL-1ΔNΔC (1 μM each) were combined and reduced with 3 mM DTT in PBS for 30 min at RT, and then incubated with 1 μM biotinylated SAHBA, SAHBA-3 or vehicle for 4 h at RT. The mixtures were then combined with PBS-washed high-capacity SA agarose (Thermo Fisher Pierce) and incubated with rotation for 2 h at RT. The beads were centrifuged at 3000 rpm, washed twice with NP-40 lysis buffer (1% NP40, 50 mM Tris pH 8.0, 100 mM NaCl, 2.5 mM MgCl2), once with PBS, and then bound protein eluted by boiling in 10% SDS containing 10 mg/mL biotin. Inputs (10%) and eluates were electrophoresed on a 12% Bis-Tris gel and then subjected to silver stain and imaging.

T5 sequence (Q07820 170-327, stated change not applied): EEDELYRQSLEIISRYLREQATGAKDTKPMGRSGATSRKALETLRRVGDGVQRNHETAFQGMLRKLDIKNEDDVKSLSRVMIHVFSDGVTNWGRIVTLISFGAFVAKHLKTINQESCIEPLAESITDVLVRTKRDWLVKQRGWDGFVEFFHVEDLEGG
T7 sequence (Q07820 170-327, stated change not applied): as above
T6 sequence (Q07817 1-212, stated change not applied): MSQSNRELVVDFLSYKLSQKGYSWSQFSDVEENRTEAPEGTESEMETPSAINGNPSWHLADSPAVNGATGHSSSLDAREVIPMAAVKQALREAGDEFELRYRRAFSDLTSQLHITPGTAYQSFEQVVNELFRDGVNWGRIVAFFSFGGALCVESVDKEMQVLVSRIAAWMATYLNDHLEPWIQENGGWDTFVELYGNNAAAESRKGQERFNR

Compound: O=C(O)[C@H]1CCCCN1 [D-homoproline]
- covalent binding efficiency (comparative) (Bfl-1 [1]): less efficient

Compound: O=C(O)[C@@H]1CCCCN1 [L-homoproline]
- covalent binding efficiency (comparative) (Bfl-1 [1]): less efficient

Compound: CN(C)C/C=C/C(=O)O [trans-4-dimethylaminocrotonic acid]
- covalent binding efficiency (comparative) (Bfl-1 [1]): less efficient

Compound: NOXA SAHBA C25S: stapled NOXA BH3 peptide with C25S substitution; SEQ ID NO:13 (AELEVESATQLR[S5]FGD[S5]LNFRQKLL; staple 13-17)
- availability of the Bfl-1 binding pocket to another FITC BH3 domain (Bfl-1 [2]): abrogated these inhibitory effects
- molecular weight shift (disulfide adduct) of wild-type BFL-1ΔC (BFL-1ΔC [3]): not

Compound: NOXA SAHBA: stapled NOXA BH3 (aa 19-43), i, i+4 hydrocarbon staple replacing R31 and K35, native C25; SEQ ID NO:9 (AELEVECATQLR[S5]FGD[S5]LNFRQKLL; staple 13-17)
- covalent (disulfide) bond formation with Bfl-1, BCL-XL and MCL-1 (Bfl-1 [4]): only Bfl-1 forms a covalent bond
- availability of the Bfl-1 binding pocket to another FITC BH3 domain (Bfl-1 [2]): significantly decreased the availability of the Bfl-1 binding pocket
- anti-apoptotic effects of Bfl-1 on BAX (Bfl-1 [5]; Bfl-1:NOXA disulfide bond formed prior to assay): almost completely abrogates the effects of Bfl-1
- anti-apoptotic effects of Bfl-1 on BAX (Bfl-1 [5]; peptide added concurrently with Bfl-1): somewhat inhibited
- molecular weight shift (disulfide adduct) of wild-type BFL-1ΔC (BFL-1ΔC [3]): shift in the molecular weight
- disulfide adduct with BFL-1ΔC C4S/C19S (only C55 present) (BFL-1ΔC [6]): molecular weight shift
- disulfide adduct with BFL-1ΔC C4S/C19S/C55S (lacks C55) (BFL-1ΔC [7]): no adduct
- molecular weight shift or FITC labeling of MCL-1ΔNΔC (MCL-1ΔNΔC): no molecular weight shift or FITC labeling
- molecular weight shift or FITC labeling of BCL-XLΔC (BCL-XLΔC): no molecular weight shift or FITC labeling
- MCL-1ΔNΔC engagement in SA pull-down (GST-MCL-1ΔNΔC): prominent non-covalent capture
